First the molecules themselves.
T1: TNFR1 (Homo sapiens, UniProt P19438)
T1 chain: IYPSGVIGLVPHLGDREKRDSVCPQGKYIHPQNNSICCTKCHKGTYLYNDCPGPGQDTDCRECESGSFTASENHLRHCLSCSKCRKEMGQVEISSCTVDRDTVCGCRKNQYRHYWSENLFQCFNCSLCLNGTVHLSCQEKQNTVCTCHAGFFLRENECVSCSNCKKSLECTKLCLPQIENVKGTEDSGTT

B1: M1E (designed binder)
chain: ETLQELLREEALRRAEAEAFRYALELLAEKFPEQKEYLLDLAEEIESQIRSLSGVDVEDVRKFLDKEWAWVKELLAEHPAELAEVEAARAARLAELRAEVEAKVAA
B2: D40G (designed binder)
chain: MTLQELLREEALRRAEAEAFRYALELLAEKFPEQKEYLLGLAEEIESQIRSLSGVDVEDVRKFLDKEWAWVKELLAEHPAELAEVEAARAARLAELRAEVEAKVAA
B3: V55S (designed binder)
chain: MTLQELLREEALRRAEAEAFRYALELLAEKFPEQKEYLLDLAEEIESQIRSLSGSDVEDVRKFLDKEWAWVKELLAEHPAELAEVEAARAARLAELRAEVEAKVAA
B4: L41V (designed binder)
chain: MTLQELLREEALRRAEAEAFRYALELLAEKFPEQKEYLLDVAEEIESQIRSLSGVDVEDVRKFLDKEWAWVKELLAEHPAELAEVEAARAARLAELRAEVEAKVAA
B5: K66C (designed binder)
chain: MTLQELLREEALRRAEAEAFRYALELLAEKFPEQKEYLLDLAEEIESQIRSLSGVDVEDVRKFLDCEWAWVKELLAEHPAELAEVEAARAARLAELRAEVEAKVAA
B6: L52G (designed binder)
chain: MTLQELLREEALRRAEAEAFRYALELLAEKFPEQKEYLLDLAEEIESQIRSGSGVDVEDVRKFLDKEWAWVKELLAEHPAELAEVEAARAARLAELRAEVEAKVAA
B7: V55M (designed binder)
chain: MTLQELLREEALRRAEAEAFRYALELLAEKFPEQKEYLLDLAEEIESQIRSLSGMDVEDVRKFLDKEWAWVKELLAEHPAELAEVEAARAARLAELRAEVEAKVAA
B8: E86C (designed binder)
chain: MTLQELLREEALRRAEAEAFRYALELLAEKFPEQKEYLLDLAEEIESQIRSLSGVDVEDVRKFLDKEWAWVKELLAEHPAELAEVCAARAARLAELRAEVEAKVAA
B9: E16G (designed binder)
chain: MTLQELLREEALRRAGAEAFRYALELLAEKFPEQKEYLLDLAEEIESQIRSLSGVDVEDVRKFLDKEWAWVKELLAEHPAELAEVEAARAARLAELRAEVEAKVAA
B10: A76F (designed binder)
chain: MTLQELLREEALRRAEAEAFRYALELLAEKFPEQKEYLLDLAEEIESQIRSLSGVDVEDVRKFLDKEWAWVKELLFEHPAELAEVEAARAARLAELRAEVEAKVAA
B11: K103L (designed binder)
chain: MTLQELLREEALRRAEAEAFRYALELLAEKFPEQKEYLLDLAEEIESQIRSLSGVDVEDVRKFLDKEWAWVKELLAEHPAELAEVEAARAARLAELRAEVEALVAA
B12: Q34P (designed binder)
chain: MTLQELLREEALRRAEAEAFRYALELLAEKFPEPKEYLLDLAEEIESQIRSLSGVDVEDVRKFLDKEWAWVKELLAEHPAELAEVEAARAARLAELRAEVEAKVAA
B13: Q48H (designed binder)
chain: MTLQELLREEALRRAEAEAFRYALELLAEKFPEQKEYLLDLAEEIESHIRSLSGVDVEDVRKFLDKEWAWVKELLAEHPAELAEVEAARAARLAELRAEVEAKVAA
B14: R92Q (designed binder)
chain: MTLQELLREEALRRAEAEAFRYALELLAEKFPEQKEYLLDLAEEIESQIRSLSGVDVEDVRKFLDKEWAWVKELLAEHPAELAEVEAARAAQLAELRAEVEAKVAA
B15: E84A (designed binder)
chain: MTLQELLREEALRRAEAEAFRYALELLAEKFPEQKEYLLDLAEEIESQIRSLSGVDVEDVRKFLDKEWAWVKELLAEHPAELAAVEAARAARLAELRAEVEAKVAA
B16: A42H (designed binder)
chain: MTLQELLREEALRRAEAEAFRYALELLAEKFPEQKEYLLDLHEEIESQIRSLSGVDVEDVRKFLDKEWAWVKELLAEHPAELAEVEAARAARLAELRAEVEAKVAA
B17: E36M (designed binder)
chain: MTLQELLREEALRRAEAEAFRYALELLAEKFPEQKMYLLDLAEEIESQIRSLSGVDVEDVRKFLDKEWAWVKELLAEHPAELAEVEAARAARLAELRAEVEAKVAA
B18: Y37T (designed binder)
chain: MTLQELLREEALRRAEAEAFRYALELLAEKFPEQKETLLDLAEEIESQIRSLSGVDVEDVRKFLDKEWAWVKELLAEHPAELAEVEAARAARLAELRAEVEAKVAA
B19: E33W (designed binder)
chain: MTLQELLREEALRRAEAEAFRYALELLAEKFPWQKEYLLDLAEEIESQIRSLSGVDVEDVRKFLDKEWAWVKELLAEHPAELAEVEAARAARLAELRAEVEAKVAA
B20: E33Q (designed binder)
chain: MTLQELLREEALRRAEAEAFRYALELLAEKFPQQKEYLLDLAEEIESQIRSLSGVDVEDVRKFLDKEWAWVKELLAEHPAELAEVEAARAARLAELRAEVEAKVAA
B21: A90V (designed binder)
chain: MTLQELLREEALRRAEAEAFRYALELLAEKFPEQKEYLLDLAEEIESQIRSLSGVDVEDVRKFLDKEWAWVKELLAEHPAELAEVEAARVARLAELRAEVEAKVAA
B22: V60S (designed binder)
chain: MTLQELLREEALRRAEAEAFRYALELLAEKFPEQKEYLLDLAEEIESQIRSLSGVDVEDSRKFLDKEWAWVKELLAEHPAELAEVEAARAARLAELRAEVEAKVAA
B23: E77M (designed binder)
chain: MTLQELLREEALRRAEAEAFRYALELLAEKFPEQKEYLLDLAEEIESQIRSLSGVDVEDVRKFLDKEWAWVKELLAMHPAELAEVEAARAARLAELRAEVEAKVAA
B24: E5F (designed binder)
chain: MTLQFLLREEALRRAEAEAFRYALELLAEKFPEQKEYLLDLAEEIESQIRSLSGVDVEDVRKFLDKEWAWVKELLAEHPAELAEVEAARAARLAELRAEVEAKVAA
B25: E25M (designed binder)
chain: MTLQELLREEALRRAEAEAFRYALMLLAEKFPEQKEYLLDLAEEIESQIRSLSGVDVEDVRKFLDKEWAWVKELLAEHPAELAEVEAARAARLAELRAEVEAKVAA
B26: A98T (designed binder)
chain: MTLQELLREEALRRAEAEAFRYALELLAEKFPEQKEYLLDLAEEIESQIRSLSGVDVEDVRKFLDKEWAWVKELLAEHPAELAEVEAARAARLAELRTEVEAKVAA
B27: E101S (designed binder)
chain: MTLQELLREEALRRAEAEAFRYALELLAEKFPEQKEYLLDLAEEIESQIRSLSGVDVEDVRKFLDKEWAWVKELLAEHPAELAEVEAARAARLAELRAEVSAKVAA
B28: L39S (designed binder)
chain: MTLQELLREEALRRAEAEAFRYALELLAEKFPEQKEYLSDLAEEIESQIRSLSGVDVEDVRKFLDKEWAWVKELLAEHPAELAEVEAARAARLAELRAEVEAKVAA
B29: E84Y (designed binder)
chain: MTLQELLREEALRRAEAEAFRYALELLAEKFPEQKEYLLDLAEEIESQIRSLSGVDVEDVRKFLDKEWAWVKELLAEHPAELAYVEAARAARLAELRAEVEAKVAA
B30: V85M (designed binder)
chain: MTLQELLREEALRRAEAEAFRYALELLAEKFPEQKEYLLDLAEEIESQIRSLSGVDVEDVRKFLDKEWAWVKELLAEHPAELAEMEAARAARLAELRAEVEAKVAA
B31: R92I (designed binder)
chain: MTLQELLREEALRRAEAEAFRYALELLAEKFPEQKEYLLDLAEEIESQIRSLSGVDVEDVRKFLDKEWAWVKELLAEHPAELAEVEAARAAILAELRAEVEAKVAA
B32: A80E (designed binder)
chain: MTLQELLREEALRRAEAEAFRYALELLAEKFPEQKEYLLDLAEEIESQIRSLSGVDVEDVRKFLDKEWAWVKELLAEHPEELAEVEAARAARLAELRAEVEAKVAA
B33: S51I (designed binder)
chain: MTLQELLREEALRRAEAEAFRYALELLAEKFPEQKEYLLDLAEEIESQIRILSGVDVEDVRKFLDKEWAWVKELLAEHPAELAEVEAARAARLAELRAEVEAKVAA
B34: E10A (designed binder)
chain: MTLQELLREAALRRAEAEAFRYALELLAEKFPEQKEYLLDLAEEIESQIRSLSGVDVEDVRKFLDKEWAWVKELLAEHPAELAEVEAARAARLAELRAEVEAKVAA

34 molecules from paper PMC12416549 (2024) can be followed below.

For this test, the target named is T1, TNFR1. The experiment in a line: yeast display SC50.
In the case of B1, the “apparent Kd (screen)” value was determined as 0.593 nM.

In the case of B2, the “apparent Kd (screen)” value worked out at 1.05 nM.

With B3, the “apparent Kd (screen)” value turned out to be 1.86 nM.

For B4, the “apparent Kd (screen)” value came to 0.869 nM.

For B5, the “apparent Kd (screen)” value stood at 1.4 nM.

Regarding B6, the “apparent Kd (screen)” value came to 1.27 nM.

Consider B7, for which the “apparent Kd (screen)” value amounted to 2.73 nM.

As for B8, the “apparent Kd (screen)” value stood at 0.653 nM.

In the case of B9, the “apparent Kd (screen)” value worked out at 0.593 nM.

Turning to B10, the “apparent Kd (screen)” value was determined as 0.446 nM.

Regarding B11, the “apparent Kd (screen)” value amounted to 1.86 nM.

Consider B12, for which the “apparent Kd (screen)” value was found to be 0.49 nM.

As for B13, the “apparent Kd (screen)” value is 0.653 nM.

As for B14, the “apparent Kd (screen)” value was 0.304 nM.

Regarding B15, the “apparent Kd (screen)” value worked out at 0.718 nM.

For the molecule B16, the “apparent Kd (screen)” value worked out at 3 nM.

For the molecule B17, the “apparent Kd (screen)” value was determined as 0.49 nM.

On to B18, for which the “apparent Kd (screen)” value is 10.4 nM.

With B19, the “apparent Kd (screen)” value was found to be 0.593 nM.

Turning to B20, the “apparent Kd (screen)” value amounted to 0.49 nM.

Take B21: the “apparent Kd (screen)” value stood at 0.593 nM.

On to B22, for which the “apparent Kd (screen)” value worked out at 0.446 nM.

On to B23, for which the “apparent Kd (screen)” value turned out to be 0.593 nM.

Consider B24, for which the “apparent Kd (screen)” value was found to be 0.653 nM.

Take B25: the “apparent Kd (screen)” value stood at 0.368 nM.

Consider B26, for which the “apparent Kd (screen)” value was 0.539 nM.

Regarding B27, the “apparent Kd (screen)” value was 0.956 nM.

For the molecule B28, the “apparent Kd (screen)” value turned out to be 2.25 nM.

Consider B29, for which the “apparent Kd (screen)” value came out at 0.718 nM.

In the case of B30, the “apparent Kd (screen)” value came out at 0.49 nM.

Turning to B31, the “apparent Kd (screen)” value came to 0.49 nM.

On to B32, for which the “apparent Kd (screen)” value was 0.49 nM.

With B33, the “apparent Kd (screen)” value stood at 1.86 nM.

As to B34, the “apparent Kd (screen)” value stood at 5.31 nM.
